# Assay results: the supplement of paper PMC12764529
# ± gives the half width of the 95% confidence interval.
# Experiment: folding stability dG unfold from chymotrypsin proteolysis; higher = more stable
# Outline: (§1)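 Only designs with AlphaFold2 dimer inter-PAE above 15 were retained; each was a mini-protein under 80 residues with no cysteine, in a PA-tagged cDNA display construct. After digestion with trypsin and chymotrypsin and sequencing, K50 was inferred by Bayesian fitting of counts, and unfolding free energy was derived per protease or combined against a sequence-predicted unfolded-state K50 and a shared folded-state K50.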
row,Sequence,folding stability dG unfold
1,SAGGSAGGSAMKKLEYTIPVPPGTLSPEKVKELFKKKYPEYENKEIKVEFSPDGTVKITVIESAGGSAGGSA [r18_65_JUSTAS],3.17 ± 0.037 kcal/mol
2,SAGMKIKVLLVVKADPEELEKLEEILEKIKEESDIKKIEPLAYFPNTGIAVVLVEADPEAFEKILEAAGSAG [r5_193_TrMRF],2.58 ± 0.03 kcal/mol
3,SAGGMTTTTLTLEEFLEKYPEEVVKERTEKPLGPGANLTIVTLTAPGTTITVTSNPAQPDIWTVTTVTSAGG [r13_942_JUSTAS],1.11 ± 0.049 kcal/mol
4,SATITVHNPWNGQPIEIRIDPGMTPEEIKKKIEKVPGIPPGTRDAVEKAIEYFEAYRQNPEQRKKLKKESAG [r14_732_TrROS],0.934 ± 0.096 kcal/mol
5,SAGGSAGGSAGGKTIVIEVKEEDIEEIIEAAKKAGADEVIIYNKKTNKKYKIKDGKIEPVSAGGSAGGSAGG [r7_564_TrROS_Hall],2.02 ± 0.045 kcal/mol
6,SATPTLTLEFEVEVEDPNAPGVPAPAKFTAEVAVTPPPVLYVGGEPWAGALLEQGLVTVGPDGLIAIPASAG [r14_582_TrMRF],1.11 ± 0.13 kcal/mol
7,SAGGSAMKPGQKLLVKNKKTNKIYEITFDKDTGKVYIHNKKTGKTYEFDSLEDALKKMGFEPVKVESAGGSA [r15_500_TrROS_Hall],2.45 ± 0.08 kcal/mol
8,SAGGSAGGSEPVVLTLPTPRGGRITITYDPSSNTATVTLPDGTVVTLSVTSVAEAKAAALAALSAGGSAGGS [r12_866_JUSTAS],3.698 ± 0.018 kcal/mol
9,SAGGSAGGSAREPPEAELVDERERTRPDGRPYTIAILRNPRDPREYLRIPGLGEWYPLDKLSAGGSAGGSAG [r3_181_TrMRF],0.431 ± 0.22 kcal/mol
10,SAGGSAGGSAEITFNFPNPNGRPYPISIEIEKPKRNPDGKYRYDYKIKVSPGMPKEAAKDLFSAGGSAGGSA [r18_272_TrROS],-0.314 ± 0.33 kcal/mol
11,SAGGKKIIIVIGSPEEVERLKELFPDEEVITLPREALENPEVLKELIKELEEKGIEVEIIIPPGVKPSAGGS [r8_376_TrROS_Hall],1.94 ± 0.26 kcal/mol
12,SAGGSAGGSAGMVVETSKNPPTSDTVVTTLVPSPNSTTVTTTIVSPDPNTIKETTTTPTPSAGGSAGGSAGG [r11_100_JUSTAS],1.23 ± 0.019 kcal/mol
13,SAGGSAGGSAYTINIWVPPGMPKEEAADYIADWLHERHGIPDIKVSVEQDPDGMTKVTITVKSAGGSAGGSA [r18_1_TrROS],2.77 ± 0.033 kcal/mol
14,SAGGSGTMKVEVSKDGGKLTVKSEFPSGGYGVSDDSGKLATLEYDPEKGTTTVTFPDGTVRTLTYPGSAGGS [r16_602_JUSTAS],0.647 ± 0.089 kcal/mol
15,SAGGSAGGSAGGPIITPKIRDALKAAGKDFSEEEIRGIAEGIAAIAIEKGYPDVVITADASAGGSAGGSAGG [r7_512_TrMRF],0.938 ± 0.018 kcal/mol
16,SAGKKLKITDPEYKYYPNEGMYWVTIPIRFPDGKPIFDIDYPMPPGQSWDQVREQAKDIARWLIEEGLISAG [r5_238_TrROS],1.93 ± 0.13 kcal/mol
17,SAGFDWRTVKFPISPELRDKLKEDGFEIVGTSPNYITITVPVVPPPSPEELEEAEKEGMTWEEARDKASAGG [r19_115_TrROS],-0.652 ± 0.82 kcal/mol
18,SAGSSPSLVLKVEIPVEIKEKRKFLLPNGETKTELTTRTITHTIVVEAGTDPAKLEEALALAEEIKEKKSAG [r14_830_JUSTAS],0.00535 ± 0.31 kcal/mol
19,SAGGSAGGSAGPKIEIEKLPGPYYLLKIYLPDENGNPIEALVVATSPEEAVEKLKELLKSSAGGSAGGSAGG [r11_819_TrMRF],3.15 ± 0.043 kcal/mol
20,SAGGSAGGTITVTPLPDGRELITYPEKNALVEIVKDPATGKETVIVYEDGEPKVISLEELKKKLSAGGSAGG [r6_534_JUSTAS],0.383 ± 0.021 kcal/mol
21,SAGGSAGGSGFKIVKVDTETGYVYVEVPKSAEKELEKLPSVEKVEEKEDSVLYRLRIPPFAALSAGGSAGGS [r12_694_TrMRF],1.95 ± 0.086 kcal/mol

row,Sequence,folding stability dG unfold
1,NPIERLKEAIKNAPPGETADIPFPDGMYININIEPEREKEDGKPRRRRKIKIEIYPPDGKPLGSITLEVPYS [r1_386_TrROS],1.23 ± 0.11 kcal/mol
2,SAGGPGTREVEITIPADELREEHPNLTDEELVEEVMELARGIAQEQGYPIKKVDITHDKDGWVTIKLSAGGS [r8_368_TrROS],0.152 ± 0.11 kcal/mol
3,SAGGMPLGITITETVTPTPDGSVVVTLTVSLPPDEPLTITFPISGETVSFPPDETITLKVTVPPGLSSAGGS [r16_56_JUSTAS],0.953 ± 0.034 kcal/mol
4,SAEEVTVKLELEIKIKVSEEEAKALAEELARALKEAGEVKITVEPVEKDEDGYYRIRVTIEVKIKKEDLSAG [r14_413_TrROS_Hall],4.24 ± 0.11 kcal/mol
5,SAGGSEVTLKVKVRRKVFKDGKLVAEEEVEKEVRVKLPPPPKIELSPELRKALEENDLEKIKKALESAGGSA [r2_196_TrROS_Hall],1.74 ± 0.053 kcal/mol
6,SAGGSAGGSAGDGWRKASFIIDPNGEILEPIPLPPGVKVEVEPFPGDGMYFVEITIPPDDSAGGSAGGSAGG [r11_32_TrROS],0.684 ± 0.099 kcal/mol
7,SAGGSWIEFMIMVPYPDGKPLEDLPPEEVVDIAKTFMSDFGYKIKDINVQYNPDDGYVHVPIEIKPSAGGSA [r2_237_TrROS],1.09 ± 0.2 kcal/mol
8,SAGGSEFPLRITDIHILGGYIVITFQVPPGLDKLEIKIKIELGGKPIEVTMEYTPGNGYMTMIIRLSAGGSA [r2_261_TrROS],5.52 ± 0.14 kcal/mol
9,SPLTLTFENPENGIRVELVFDPETPEVHAKVYAPNGELLSEETFEVEEKKITLRFNLEGKEFELEIELDESA [r9_385_TrMRF],4.25 ± 0.082 kcal/mol
10,SAGGSAGGTLSIEELKELFPEAEKIEAEEVELTFTLPNGKKVKAKYRLVTVYRDNKPILLLVPGSAGGSAGG [r6_138_TrMRF],2.97 ± 0.056 kcal/mol
11,SAGGSAGGSAGLKVIEADTLEEVLEAIKEAPKDEPLLLILRNPSTGVDSVLLFDGDKIVLGGSAGGSAGGSA [r18_407_TrMRF],0.595 ± 0.09 kcal/mol
12,SAGGSAGGSAGEKEITISILVKGEDGRLYAIKMKAKITFDEKTNELKIEIEEISITPLPPSAGGSAGGSAGG [r17_129_TrROS_Hall],4.29 ± 0.16 kcal/mol
13,SAGGSAGGSAGGMVVLENGDEVIVETFEFEEPVLDDVSEELREELGVVKVTVTKVTVIRRSAGGSAGGSAGG [r7_324_JUSTAS],1.15 ± 0.059 kcal/mol
14,SAGGSAGGSAPPPAKVKVITITETRVTYDPDTDELTVETVTLTLVVAPDGHIYVDGRWIPAEDLSAGGSAGG [r6_514_TrROS_Hall],3.68 ± 0.14 kcal/mol
15,SAGGSAGGSAGGSMPIPYKIDSIEYYPPYPYYTLNVTGPENKPYTIIMSPENLENATIESAGGSAGGSAGGS [r4_51_TrMRF],0.607 ± 0.19 kcal/mol
16,SNPDDQKKAKPIEIEIEIDFKPERERDPDGKERPRFEFDIEIKIPPGAPLDMITIYIRFDDWPFMITIPASA [r9_488_TrROS],3.42 ± 0.15 kcal/mol
17,SAGGSAGGSAGGKTYTAEELRKKLPPGAVIRLKNGKKYEIKEGDKIKKGDKIEIVPKKDLSAGGSAGGSAGG [r7_507_TrROS_Hall],0.369 ± 0.14 kcal/mol
18,SAGGSAGGMLTTQETSSDPATNLTTTTTTLTEKDASGNLVPLETTVTTTTSPPAPSTTAPTYAASAGGSAGG [r6_901_JUSTAS],0.432 ± 0.024 kcal/mol
19,SAGGQRIEIKIKPGYFIMIKIRNPKNGETFRHFIPFKKPQEIEIPIPPNYEIEDIYIMPPKDMPDGMISAGG [r13_119_TrROS],2.28 ± 0.09 kcal/mol
20,SAGGSAGGSAFDPGAPWIIMINIDIEVKKVEIERDPGDGKWEIKRIEITITIDIAIMPAEDMSAGGSAGGSA [r18_137_TrROS],4.11 ± 0.23 kcal/mol
21,KMKTITITVKVPKGMKVVITLANGKKIEIEVESVEDALKKIKKLLPEGAVLRVEVVKDGKVIEEKEIVIKPS [r1_276_TrROS_Hall],2.96 ± 0.041 kcal/mol

# Experiment: folding stability dG unfold (combined trypsin and chymotrypsin); higher = more stable
# Outline: as §1
row,Sequence,folding stability dG unfold
1,SAGGSAGGSAMKKLEYTIPVPPGTLSPEKVKELFKKKYPEYENKEIKVEFSPDGTVKITVIESAGGSAGGSA [r18_65_JUSTAS],2.92 ± 0.066 kcal/mol
2,SAGMKIKVLLVVKADPEELEKLEEILEKIKEESDIKKIEPLAYFPNTGIAVVLVEADPEAFEKILEAAGSAG [r5_193_TrMRF],2.29 ± 0.095 kcal/mol
3,SAGGMTTTTLTLEEFLEKYPEEVVKERTEKPLGPGANLTIVTLTAPGTTITVTSNPAQPDIWTVTTVTSAGG [r13_942_JUSTAS],0.965 ± 0.051 kcal/mol
4,SATITVHNPWNGQPIEIRIDPGMTPEEIKKKIEKVPGIPPGTRDAVEKAIEYFEAYRQNPEQRKKLKKESAG [r14_732_TrROS],0.675 ± 0.13 kcal/mol
5,SAGGSAGGSAGGKTIVIEVKEEDIEEIIEAAKKAGADEVIIYNKKTNKKYKIKDGKIEPVSAGGSAGGSAGG [r7_564_TrROS_Hall],1.81 ± 0.1 kcal/mol
6,SATPTLTLEFEVEVEDPNAPGVPAPAKFTAEVAVTPPPVLYVGGEPWAGALLEQGLVTVGPDGLIAIPASAG [r14_582_TrMRF],0.775 ± 0.13 kcal/mol
7,SAGGSAMKPGQKLLVKNKKTNKIYEITFDKDTGKVYIHNKKTGKTYEFDSLEDALKKMGFEPVKVESAGGSA [r15_500_TrROS_Hall],2.28 ± 0.16 kcal/mol
8,SAGGSAGGSEPVVLTLPTPRGGRITITYDPSSNTATVTLPDGTVVTLSVTSVAEAKAAALAALSAGGSAGGS [r12_866_JUSTAS],3.515 ± 0.025 kcal/mol
9,SAGGSAGGSAREPPEAELVDERERTRPDGRPYTIAILRNPRDPREYLRIPGLGEWYPLDKLSAGGSAGGSAG [r3_181_TrMRF],0.126 ± 0.12 kcal/mol
10,SAGGSAGGSAEITFNFPNPNGRPYPISIEIEKPKRNPDGKYRYDYKIKVSPGMPKEAAKDLFSAGGSAGGSA [r18_272_TrROS],-0.351 ± 0.2 kcal/mol
11,SAGGKKIIIVIGSPEEVERLKELFPDEEVITLPREALENPEVLKELIKELEEKGIEVEIIIPPGVKPSAGGS [r8_376_TrROS_Hall],3.73 ± 0.44 kcal/mol
12,SAGGSAGGSAGMVVETSKNPPTSDTVVTTLVPSPNSTTVTTTIVSPDPNTIKETTTTPTPSAGGSAGGSAGG [r11_100_JUSTAS],1.8 ± 0.034 kcal/mol
13,SAGGSAGGSAYTINIWVPPGMPKEEAADYIADWLHERHGIPDIKVSVEQDPDGMTKVTITVKSAGGSAGGSA [r18_1_TrROS],2.52 ± 0.085 kcal/mol
14,SAGGSGTMKVEVSKDGGKLTVKSEFPSGGYGVSDDSGKLATLEYDPEKGTTTVTFPDGTVRTLTYPGSAGGS [r16_602_JUSTAS],0.501 ± 0.12 kcal/mol
15,SAGGSAGGSAGGPIITPKIRDALKAAGKDFSEEEIRGIAEGIAAIAIEKGYPDVVITADASAGGSAGGSAGG [r7_512_TrMRF],0.669 ± 0.045 kcal/mol
16,SAGKKLKITDPEYKYYPNEGMYWVTIPIRFPDGKPIFDIDYPMPPGQSWDQVREQAKDIARWLIEEGLISAG [r5_238_TrROS],1.52 ± 0.095 kcal/mol
17,SAGFDWRTVKFPISPELRDKLKEDGFEIVGTSPNYITITVPVVPPPSPEELEEAEKEGMTWEEARDKASAGG [r19_115_TrROS],-0.0214 ± 0.26 kcal/mol
18,SAGSSPSLVLKVEIPVEIKEKRKFLLPNGETKTELTTRTITHTIVVEAGTDPAKLEEALALAEEIKEKKSAG [r14_830_JUSTAS],-0.276 ± 0.25 kcal/mol
19,SAGGSAGGSAGPKIEIEKLPGPYYLLKIYLPDENGNPIEALVVATSPEEAVEKLKELLKSSAGGSAGGSAGG [r11_819_TrMRF],3.18 ± 0.098 kcal/mol
20,SAGGSAGGTITVTPLPDGRELITYPEKNALVEIVKDPATGKETVIVYEDGEPKVISLEELKKKLSAGGSAGG [r6_534_JUSTAS],0.417 ± 0.079 kcal/mol
21,SAGGSAGGSGFKIVKVDTETGYVYVEVPKSAEKELEKLPSVEKVEEKEDSVLYRLRIPPFAALSAGGSAGGS [r12_694_TrMRF],1.81 ± 0.19 kcal/mol
